The record followed here is patent US20050100540A1, “Platelet-activating factor acetylhydrolase” (priority 1993, published 2005).

Substitutions are numbered along the chain they refer to. Numbers in names are those of the source.

Holding throughout (assay type): biochemical
Assay [1] deals with recombinant PAF-AH encoded by clone sAH 406-3 (Homo sapiens, UniProt Q13093).
A short description of assay [2]: PAF-AH activity of amino acid substitution products expressed in E. coli. The conditions noted are these: point mutants expressed in E. coli. The source says:
By site-directed mutagenesis and PCR, individual codons of the human PAF-AH coding sequence were modified to encode alanine residues and were expressed in E. coli. […] The distances between active site residues is similar for PAF-AH (Ser to Asp, 23 amino acids; Ser to His, 78 amino acids) and other lipases. […] Cysteines are often critical for the functional integrity of proteins because of their capacity to form disulfide bonds. The plasma PAF-AH enzyme contains five cysteines. To determine whether any of the five is critical for enzyme actvity, each cysteine was mutated individually to a serine and the resulting mutants were expressed in E. coli. As shown below in Table 8, a significant but not total loss of PAF-AH activity resulted from the conversion of either Cys229, r Cys291 to serine. Therefore, these cysteines appear to be necessary for full PAF-AH activity. Other point mutations had little or no effect on PAF-AH catalytic activity. In Table 8, “++++” represent wild type PAF-AH activity of about 40-60 U/ml/OD600, “+++” represents about 20-40 U/ml/OD600 activity, “++” represents about 10-20 U/ml/OD600 activity, “+” represents 1-10 U/ml/OD600 activity, and “−” indicates <1 U/ml/OD600 activity.
To test whether this mutation crippled the enzyme, an E. coli expression construct containing the mutation was generated by methods similar to that described in Example 10. […] This amino acid substitution presumably results in a structural modification which causes the observed deficiency of activity and lack of immunoreactivity with the PAF-AH antibodies of the invention.

Assay [3] is described as follows: PAF-AH activity of E. coli constructs with extended amino termini (lysate, media). The following applies: trp promoter. The method, then:
PAF-AH activity in transfectant supernatants was determined by the method of Stafforini et al. (1990), supra, with the following modifications. Briefly, PAF-AH activity was determined by measuring the hydrolysis of ^3H-acetate from [acetyl-^3H) PAF (New England Nuclear, Boston, Mass.). The aqueous free ^3H-acetate was separated from labeled substrate by reversed-phase column chromatography over octadecylsilica gel cartridges (Baker Research Products, Phillipsburg, Pa.). Assays were carried out using 10 μl transfectant supernatant in 0.1M Hepes buffer, pH 7.2, in a reaction volume of 50 μl. A total of 50 pmoles of substrate were used per reaction with a ratio of 1:5 labeled: cold PAF. Reactions were incubated for 30 minutes at 37° C. and stopped by the addition of 40 μl of 10M acetic acid. The solution was then washed through the octadecylsilica gel cartridges which were then rinsed with 0.1M sodium acetate. The aqueous eluate from each sample was collected and counted in a liquid scintillation counter for one minute. Enzyme activity was expressed in counts per minute.
and encompassed the termination codon of sAH 406-3 and contained an EcoRV cloning site. PCR reactions were performed essentially as described in Example 3. The resulting PCR product was digested with XbaI and EcoRV and subcloned into a pBR322 vector containing the Trp promoter [deBoer et al., PNAS. 80:21-25 (1983)] immediately upstream of the cloning site. E. coli strain XL-1 Blue was transformed with the expression construct and cultured in L broth containing 100 μg/ml of carbenicillin. Transformants from overnight cultures were pelleted and resuspended in lysis buffer containing 50 mM Tris-HCl pH 7.5, 50 mM NaCl, 10 mM CHAPS, 1 mM EDTA, 100 μg/ml lysozyme, and 0.05 trypsin-inhibiting units (TIU)/ml Aprotinin. Following a 1 hour incubation on ice and sonication for 2 minutes, the lysates were assayed for PAF-AH activity by the method described in Example 4. E. coli transformed with the expression construct (designated trp AH) generated a product with PAF-AH activity.
Several E. coli expression constructs were also evaluated which produce PAF-AH with extended amino termini. The N-terminus of natural plasma PAF-AH was identified as Ile42 by amino acid sequencing (Example 2). […] Acids Res., 14:4683-4690 (1986)]. Presumably a more classical signal sequence (M1-A17) is recognized by the cellular secretion system, followed by endoproteolytic cleavage. The entire coding sequence for PAF-AH beginning at the initiating methionine (nucleotides 162 to 1487 of SEQ ID NO: 7) was engineered for expression in E. coli using the trp promoter. […] Another expression construct, beginning at Val18 (nucleotides 213 to-1487 of SEQ ID NO: 7), produced active PAF-AH at about one third the level of the original construct.

Turning to `O=C(O)CN(CCN(CC(=O)O)CC(=O)O)CC(=O)O` [EDTA, reference compound], the “Effect on PAF-AH activity of media from cells transfected with sAH 406-3” value in assay [1] is given as “unaffected”.

B1: sAH 406-3: Full length human plasma PAF-AH cDNA clone, product transiently expressed in COS 7 cells (protein)
chain: MVPPKLHVLFCLCGCLAVVYPFDWQYINPVAHMKSSAWVNKIQVLMAAASFGQTKIPRGNGPYSVGCTDLMFDHTNKGTFLRLYYPSQDNDRLDTLWIPNKEYFWGLSKFLGTHWLMGNILRLLFGSMTTPANWNSPLRPGEKYPLVVFSHGLGAFRTLYSAIGIDLASHGFIVAAVEHRDRSASATYYFKDQSAAEIGDKSWLYLRTLKQEEETHIRNEQVRQRAKECSQALSLILDIDHGKPVKNALDLKFDMEQLKDSIDREKIAVIGHSFGGATVIQTLSEDQRFRCGIALDAWMFPLGDEVYSRIPQPLFFINSEYFQYPANIIKMKKCYSPDKERKMITIRGSVHQNFADFTFATGKIIGHMLKLKGDIDSNVAIDLSNKASLAFLQKHLGLHKDFDQWDCLIEGDDENLIPGTNINTTNQHIMLQNSSGIEKYN
Consider B1, for which, in assay [1], the “PAF-AH activity of transfected COS cell media relative to background” value was determined as 4 fold.

B2: S108A: PAF-AH amino acid substitution product expressed in E. coli (protein)
chain: B1 chain with S108A
For B2, the PAF-AH activity result in assay [2] is on record as “++++ (“++++” represent wild type PAF-AH activity of about 40-60 U/ml/OD600)”.

B3: D296A: PAF-AH amino acid substitution product expressed in E. coli (protein)
chain: B1 chain with D296A
Turning to B3, the PAF-AH activity result in assay [2] was “− (“−” indicates <1 U/ml/OD600 activity)”.

B4: D286N: PAF-AH amino acid substitution product expressed in E. coli (protein)
chain: B1 chain with D286N
In the case of B4, in assay [2], the PAF-AH activity result is reported as “++ (“++” represents about 10-20 U/ml/OD600 activity)”.

B5: D286A: PAF-AH amino acid substitution product expressed in E. coli (protein)
chain: B1 chain with D286A
Regarding B5, in assay [2], the PAF-AH activity result is recorded as “− (“−” indicates <1 U/ml/OD600 activity)”.

B6: pUC trp AH Met1: PAF-AH from entire coding sequence beginning at the initiating methionine, E. coli, trp promoter (protein, UniProt Q13093 1-441, looked up)
chain: B1 chain
modifications: full-length
With B6, in assay [3] (E. coli lysate), the “PAF-AH activity, Lysate” value came out at 3.1 U/ml/OD600. Further, the “PAF-AH activity, Media” value in assay [3] (E. coli media) amounted to 0.003 U/ml/OD600.

B7: C407S: PAF-AH cysteine to serine mutant expressed in E. coli (protein)
chain: B1 chain with C407S
Take B7: the PAF-AH activity result in assay [2] is “+++ (“+++” represents about 20-40 U/ml/OD600 activity)”.

B8: S273A: PAF-AH amino acid substitution product expressed in E. coli (protein)
chain: B1 chain with S273A
Consider B8, for which, in assay [2], the PAF-AH activity entry was “− (“−” indicates <1 U/ml/OD600 activity)”.

B9: Wild type: Wild type human PAF-AH expressed in E. coli, reference of Table 8 (protein, UniProt Q13093 22-441, looked up)
Platelet-activating factor …: FDWQYINPVAHMKSSAWVNKIQVLMAAASFGQTKIPRGNGPYSVGCTDLMFDHTNKGTFLRLYYPSQDNDRLDTLWIPNKEYFWGLSKFLGTHWLMGNILRLLFGSMTTPANWNSPLRPGEKYPLVVFSHGLGAFRTLYSAIGIDLASHGFIVAAVEHRDRSASATYYFKDQSAAEIGDKSWLYLRTLKQEEETHIRNEQVRQRAKECSQALSLILDIDHGKPVKNALDLKFDMEQLKDSIDREKIAVIGHSFGGATVIQTLSEDQRFRCGIALDAWMFPLGDEVYSRIPQPLFFINSEYFQYPANIIKMKKCYSPDKERKMITIRGSVHQNFADFTFATGKIIGHMLKLKGDIDSNVAIDLSNKASLAFLQKHLGLHKDFDQWDCLIEGDDENLIPGTNINTTNQHIMLQNSSGIEKYN
On to B9, for which the PAF-AH activity result in assay [2] was “++++ (“++++” represent wild type PAF-AH activity of about 40-60 U/ml/OD600)”.
